Source: PMC13544220, “Glycemic and bodyweight effects of GIPR coding variation reflect differences in surface expression and intrinsic functional impairment” (Science Advances, 2026)
Substitutions are numbered along the chain they refer to. In names and notes the source's numbering stands.

Columns and labels:
Assay type in all cases: cell-based, human
[1] = tested on: wild-type and variant SNAP-GIPR; experiment: Surface SNAP-GIPR expression (SNAP-tag labelling) in AD293 cells; conditions: for AD293 Surface: Fig S3E, mean; for Surface SNAP-GIPR expression: sheet Fig 1C;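 on all read-outs here: scaled to the experimental average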
How it was run: (§1)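 Surface GIPR is quantified from wide-field images after labelling intact transfected cells with a membrane-impermeant SNAP probe at 500 nM for 10 min at room temperature. Specific signal, corrected for nontransfected cells, is normalized to the experiment-wide average or to wild-type.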

[2] = tested on: wild-type and variant SNAP-GIPR; experiment: Constitutive and agonist-mediated internalization, reversible SNAP-tag labelling, INS-1 cells; design: key to Internalisation, GIP-only / Internalisation, Vehicle / Internalisation, +GIP: % internalization: residual fluorescence after Mesna vs pre-Mesna; conditions: Mean; for +GIP internalisation (100 nM) / GIP-specific internalisation (100 nM) / Constitutive internalisation (100 nM): Fig 4G; for +GIP internalisation (100 nM) / GIP-specific internalisation (100 nM): GIP 100 nM; for Internalisation, +GIP / Internalisation, GIP-only / Internalisation, Vehicle: Fig S4C, INS-1
How it was run: (§2)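 Surface SNAP-GIPR signal removable by Mesna was tracked by imaging before and 10 min after treatment in pH 8.6 TNE buffer. Internalization is the Mesna-resistant share of specific fluorescence.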

[3] = tested on: wild-type and variant SNAP-GIPR; experiment: Constitutive and agonist-mediated internalization, reversible SNAP-tag labelling, AD293 cells; design: key to Internalisation, Vehicle / Internalisation, +GIP / Internalisation, GIP-only: % internalization: residual fluorescence after Mesna vs pre-Mesna; Surface expression: unit not given here; conditions: Mean; for +GIP internalisation (100 nM) / GIP-specific internalisation (100 nM) / Constitutive internalisation (100 nM) / Surface expression: Fig 4E; for +GIP internalisation (100 nM) / GIP-specific internalisation (100 nM): GIP 100 nM; for Internalisation, +GIP / Internalisation, GIP-only / Internalisation, Vehicle: Fig S4C, AD293
How it was run: as §2

[4] = tested on: wild-type and variant SNAP-GIPR; experiment: cADDis cAMP imaging in AD293 cells, ensemble, expression-matched and per decile; conditions: Fig S3F, cADDis, mean;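 further: Ensemble cells as % of IBMX/FSK response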
How it was run: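 Variants and wild type ran in parallel in transfected AD293 cells carrying cADDis. Single-cell sensor intensity, with nonresponders to IBMX/FSK removed, was paired with SNAP-Surface 647 labeling to allow expression-matched analysis.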

[5] = tested on: wild-type and variant SNAP-GIPR; experiment: Single-concentration GIP cAMP response by HTRF in INS-1 cells; conditions: Fig S3E, mean
Method: (§3) All variants were tested in parallel on each occasion to control for transfection efficiency differences between experiments.

[6] = tested on: wild-type and variant SNAP-GIPR; experiment: Single-concentration GIP cAMP response by HTRF in AD293 cells; conditions: Fig S3F, HTRF, mean;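 further: ratio to experiment-wide average response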
Method: as §3

[7] = tested on: wild-type and variant SNAP-GIPR; experiment: Surface SNAP-GIPR expression (SNAP-tag labelling) in INS-1 cells; conditions: Fig 4G; Mean
How it was run: as §1

[8] = column repeated, paired with cAMP 100 nM

B1: R183Q (protein, UniProt P48546 22-466, looked up, variant R183Q)
Gastric inhibitory …: RAETGSKGQTAGELYQRWERYRRECQETLAAAEPPSGLACNGSFDMYVCWDYAAPNATARASCPWYLPWHHHVAAGFVLRQCGSDGQWGLWRDHTQCENPEKNEAFLDQRLILERLQVMYTVGYSLSLATLLLALLILSLFRRLHCTRNYIHINLFTSFMLQAAAILSRDRLLPRPGPYLGDQALALWNQALAACRTAQIVTQYCVGANYTWLLVEGVYLHSLLVLVGGSEEGHFRYYLLLGWGAPALFVIPWVIVRYLYENTQCWERNEVKAIWWIIRTPILMTILINFLIFIRILGILLSKLRTRQMRCRDYRLRLARSTLTLVPLLGVHEVVFAPVTEEQARGALRFAKLGFEIFLSSFQGFLVSVLYCFINKEVQSEIRRGWHHCRLRRSLGEEQRQLPERAFRALPSGSGPGEVPTSRGLSSGTLPGPGNEASRELESYC
[1]; [8]
  AD293 Surface: 0.6425
[1]; paired with cAMP 100 pM
  AD293 Surface: 0.6425
[1]; replicate 1
  Surface SNAP-GIPR expression: 0.7543
[1]; replicate 2
  Surface SNAP-GIPR expression: 1.106
[1]; replicate 3
  Surface SNAP-GIPR expression: 0.9536
[1]; replicate 4
  Surface SNAP-GIPR expression: 0.232
[1]; replicate 5
  Surface SNAP-GIPR expression: 0.7423
[1]; replicate 6
  Surface SNAP-GIPR expression: 0.6069
[1]; replicate 7
  Surface SNAP-GIPR expression: 1.15
[1]; replicate 8
  Surface SNAP-GIPR expression: 0.9044
[1]; replicate 9
  Surface SNAP-GIPR expression: 0.5747
[1]; replicate 10
  Surface SNAP-GIPR expression: 0.6709
[1]; replicate 11
  Surface SNAP-GIPR expression: 0.6959
[1]; replicate 12
  Surface SNAP-GIPR expression: 0.6048
[1]; replicate 13
  Surface SNAP-GIPR expression: 0.2083
[1]; replicate 14
  Surface SNAP-GIPR expression: 0.4922
[1]; replicate 15
  Surface SNAP-GIPR expression: 0.6065
[1]; replicate 16
  Surface SNAP-GIPR expression: 0.716
[1]; replicate 17
  Surface SNAP-GIPR expression: 0.7375
[1]; replicate 18
  Surface SNAP-GIPR expression: 0.5932
[1]; replicate 19
  Surface SNAP-GIPR expression: 0.8135
[1]; replicate 20
  Surface SNAP-GIPR expression: 0.672
[1]; replicate 21
  Surface SNAP-GIPR expression: 0.7253
[1]; replicate 22
  Surface SNAP-GIPR expression: 0.7101
[1]; replicate 23
  Surface SNAP-GIPR expression: 0.6734
[1]; replicate 24
  Surface SNAP-GIPR expression: 0.6371
[1]; replicate 25
  Surface SNAP-GIPR expression: 0.6035
[1]; replicate 26
  Surface SNAP-GIPR expression: 0.6412
[1]; replicate 27
  Surface SNAP-GIPR expression: 0.6638
[1]; replicate 28
  Surface SNAP-GIPR expression: 0.5579
[1]; replicate 29
  Surface SNAP-GIPR expression: 0.6957
[1]; replicate 30
  Surface SNAP-GIPR expression: 0.2984
[1]; replicate 31
  Surface SNAP-GIPR expression: 0.1821
[1]; replicate 32
  Surface SNAP-GIPR expression: 0.3718
[1]; replicate 33
  Surface SNAP-GIPR expression: 0.3193
[1]; replicate 34
  Surface SNAP-GIPR expression: 0.6173
[1]; replicate 35
  Surface SNAP-GIPR expression: 0.7865
[1]; replicate 36
  Surface SNAP-GIPR expression: 0.6007
[1]; replicate 37
  Surface SNAP-GIPR expression: 0.5904
[1]; replicate 38
  Surface SNAP-GIPR expression: 0.7906
[1]; replicate 39
  Surface SNAP-GIPR expression: 0.7153
[1]; replicate 40
  Surface SNAP-GIPR expression: 0.6916
[1]; replicate 41
  Surface SNAP-GIPR expression: 0.6376
[2]
  +GIP internalisation (100 nM): 0.3116
  GIP-specific internalisation (100 nM): 0.02961
  Constitutive internalisation (100 nM): 0.282
  Internalisation, +GIP: 37.4683
  Internalisation, GIP-only: 3.708
  Internalisation, Vehicle: 33.76
[3]
  +GIP internalisation (100 nM): 0.3247
  GIP-specific internalisation (100 nM): 0.02672
  Constitutive internalisation (100 nM): 0.298
  Surface expression: 0.6535
  Internalisation, +GIP: 49.3267
  Internalisation, GIP-only: 3.992
  Internalisation, Vehicle: 45.335
[4]
  AD293 100 pM cADDis: -1.0843
  AD293 100 nM cADDis: 18.64
[5]
  INS-1 cAMP (100 nM): 0.04521
[6]
  AD293 100 pM HTRF: 0.04104
  AD293 100 nM HTRF: 0.2411
[7]
  Surface expression: 0.8445

B2: S64A (protein, UniProt P48546 22-466, looked up, variant S64A)
Gastric inhibitory …: B1 Gastric inhibitory … with S43A, Q162R
[1]; [8]
  AD293 Surface: 0.5377
[1]; paired with cAMP 100 pM
  AD293 Surface: 0.5377
[1]; replicate 1
  Surface SNAP-GIPR expression: 0.5948
[1]; replicate 2
  Surface SNAP-GIPR expression: 0.3831
[1]; replicate 3
  Surface SNAP-GIPR expression: 0.1917
[1]; replicate 4
  Surface SNAP-GIPR expression: 0.03284
[1]; replicate 5
  Surface SNAP-GIPR expression: 0.714
[1]; replicate 6
  Surface SNAP-GIPR expression: 0.449
[1]; replicate 7
  Surface SNAP-GIPR expression: 0.6736
[1]; replicate 8
  Surface SNAP-GIPR expression: 0.7024
[1]; replicate 9
  Surface SNAP-GIPR expression: 0.4646
[1]; replicate 10
  Surface SNAP-GIPR expression: 0.5884
[1]; replicate 11
  Surface SNAP-GIPR expression: 0.4154
[1]; replicate 12
  Surface SNAP-GIPR expression: 0.584
[1]; replicate 13
  Surface SNAP-GIPR expression: 0.53
[1]; replicate 14
  Surface SNAP-GIPR expression: 0.7656
[1]; replicate 15
  Surface SNAP-GIPR expression: 0.5316
[1]; replicate 16
  Surface SNAP-GIPR expression: 0.5279
[1]; replicate 17
  Surface SNAP-GIPR expression: 0.5713
[1]; replicate 18
  Surface SNAP-GIPR expression: 0.5329
[1]; replicate 19
  Surface SNAP-GIPR expression: 0.5212
[1]; replicate 20
  Surface SNAP-GIPR expression: 0.6932
[1]; replicate 21
  Surface SNAP-GIPR expression: 0.7203
[1]; replicate 22
  Surface SNAP-GIPR expression: 0.5804
[1]; replicate 23
  Surface SNAP-GIPR expression: 0.6278
[1]; replicate 24
  Surface SNAP-GIPR expression: 0.5394
[1]; replicate 25
  Surface SNAP-GIPR expression: 0.4918
[1]; replicate 26
  Surface SNAP-GIPR expression: 0.6002
[1]; replicate 27
  Surface SNAP-GIPR expression: 0.6328
[1]; replicate 28
  Surface SNAP-GIPR expression: 0.5573
[1]; replicate 29
  Surface SNAP-GIPR expression: 0.4754
[1]; replicate 30
  Surface SNAP-GIPR expression: 0.4312
[1]; replicate 31
  Surface SNAP-GIPR expression: 0.4378
[1]; replicate 32
  Surface SNAP-GIPR expression: 0.606
[1]; replicate 33
  Surface SNAP-GIPR expression: 0.6793
[1]; replicate 34
  Surface SNAP-GIPR expression: 0.4646
[1]; replicate 35
  Surface SNAP-GIPR expression: 0.5832
[1]; replicate 36
  Surface SNAP-GIPR expression: 0.4138
[1]; replicate 37
  Surface SNAP-GIPR expression: 0.5632
[1]; replicate 38
  Surface SNAP-GIPR expression: 0.4283
[1]; replicate 39
  Surface SNAP-GIPR expression: 0.6589
[1]; replicate 40
  Surface SNAP-GIPR expression: 0.5446
[1]; replicate 41
  Surface SNAP-GIPR expression: 0.5428
[2]
  +GIP internalisation (100 nM): 0.3425
  GIP-specific internalisation (100 nM): 0.05503
  Constitutive internalisation (100 nM): 0.2874
  Internalisation, +GIP: 52.768
  Internalisation, GIP-only: 8.16
  Internalisation, Vehicle: 44.608
[3]
  +GIP internalisation (100 nM): 0.3536
  GIP-specific internalisation (100 nM): 0.06262
  Constitutive internalisation (100 nM): 0.291
  Surface expression: 0.5133
  Internalisation, +GIP: 68.8859
  Internalisation, GIP-only: 12.125
  Internalisation, Vehicle: 56.7609
[4]
  AD293 100 pM cADDis: 21.6969
  AD293 100 nM cADDis: 34.42
[5]
  INS-1 cAMP (100 nM): 1.062
[6]
  AD293 100 pM HTRF: 0.1562
  AD293 100 nM HTRF: 1.061
[7]
  Surface expression: 0.6025
